Assay [1] deals with Clostridium perfringens enterotoxin (CPE) (Clostridium perfringens) (UniProt P01558). The settings on record: cited from earlier work.
Assay [2] has the same target. The settings on record: cited from earlier work. This is another data set of the same source.
The target of assay [3] is T1, recombinant Clostridium perfringens enterotoxin (CPE) (aa 26–319, wild type) (Clostridium perfringens, UniProt P01558 26-319).
T1 construct: also called CPE 26–319; holo-CPE
T1 sequence: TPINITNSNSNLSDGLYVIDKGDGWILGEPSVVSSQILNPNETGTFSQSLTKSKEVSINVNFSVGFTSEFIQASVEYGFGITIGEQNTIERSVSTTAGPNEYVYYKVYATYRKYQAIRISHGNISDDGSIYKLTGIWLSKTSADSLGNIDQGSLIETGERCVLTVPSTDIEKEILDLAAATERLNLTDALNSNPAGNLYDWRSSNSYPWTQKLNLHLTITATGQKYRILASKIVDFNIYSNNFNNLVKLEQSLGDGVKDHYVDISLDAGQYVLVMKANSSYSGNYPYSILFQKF
Briefly: SPR; […], multi-cycle, 120 s association, 1200 s dissociation; HBS-EP+ pH 7.4, 25 °C; Biacore T200; 1:1 Langmuir fit. The settings on record: both partners purified. (In SPR one partner is held on a chip, and binding of the other changes the refractive index at the surface.)

Data on three molecules can be found in PMC8068247, “Innovative and Highly Sensitive Detection of Clostridium perfringens Enterotoxin Based on Receptor Interaction and Monoclonal Antibodies” (Toxins, 2021).

Read-outs that look alike come from different tables or passages of the source.

Regarding claudin-4 (from UniProt O35054), in assay [1], the dissociation constant Kd is 9 nM. Take claudin-4 (from UniProt O14493): the Kd in assay [2] is 3.4 nM.

B1: GST human claudin-4 fusion protein (GST-ShCLDN4H8) (receptor)
chain: MASMGLQVMGIALAVLGWLAVMLCCALPMWRVTAFIGSNIVTSQTIWEGLWMNCVVQSTGQMQCKVYDSLLALPQDLQAARALVIISIIVAALGVLLSVVGGKCTNCLEDESAKAKTMIVAGVVFLLAGLMVIVPVSWTAHNIIQDFYNPLVASGQKREMGASLYVGWAASGLLLLGGGLLCCNCPPRTDKPYSAKYSAARSAAASNYV
In the case of B1, in assay [3], the Kd came to 0.38 nM, the koff worked out at 0.00021 s⁻¹ and the kon was 560000 M⁻¹ s⁻¹.

The Kd is the constant that tells how readily two partners part at equilibrium. One may read the koff as a measure of how fast the partners let go of each other. What is called kon is the second-order rate constant of association.
